Results published in article PMC3668167, “Ski-interacting protein (SKIP) interacts with androgen receptor in the nucleus and modulates androgen-dependent transcription” (BMC Biochemistry, 2013).
Blank lines part the entries; values can stand above or below the binder they belong to.

Experiments:
[1] = target: T1, GAL4 DNA binding domain fusion of the AR AF-1 fragment, residues 1-555 (pM-GAL4DBD-AR-AF1) (human, UniProt P10275 1-555); experiment: cell-based or functional assay
T1 sequence (looked up): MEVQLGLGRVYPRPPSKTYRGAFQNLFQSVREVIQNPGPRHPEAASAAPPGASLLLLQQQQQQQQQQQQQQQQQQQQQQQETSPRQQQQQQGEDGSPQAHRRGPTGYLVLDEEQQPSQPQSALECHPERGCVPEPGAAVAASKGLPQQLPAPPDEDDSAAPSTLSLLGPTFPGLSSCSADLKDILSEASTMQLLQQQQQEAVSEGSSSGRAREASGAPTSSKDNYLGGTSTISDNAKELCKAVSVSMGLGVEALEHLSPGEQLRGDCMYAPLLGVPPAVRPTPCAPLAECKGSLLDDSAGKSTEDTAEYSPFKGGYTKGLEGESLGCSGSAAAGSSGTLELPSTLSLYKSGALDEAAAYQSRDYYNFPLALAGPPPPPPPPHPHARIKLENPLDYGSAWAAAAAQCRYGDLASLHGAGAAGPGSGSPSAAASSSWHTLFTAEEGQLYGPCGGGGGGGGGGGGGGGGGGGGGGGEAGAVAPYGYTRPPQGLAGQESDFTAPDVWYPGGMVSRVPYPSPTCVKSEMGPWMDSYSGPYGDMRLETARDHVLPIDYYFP

[2] = target: T2, GAL4 DNA binding domain fusion of AR-LBD residues 642-917 (pM-GAL4DBD-AR642-917) (human, UniProt P10275 642-917); experiment: cell-based or functional assay
T2 sequence (looked up): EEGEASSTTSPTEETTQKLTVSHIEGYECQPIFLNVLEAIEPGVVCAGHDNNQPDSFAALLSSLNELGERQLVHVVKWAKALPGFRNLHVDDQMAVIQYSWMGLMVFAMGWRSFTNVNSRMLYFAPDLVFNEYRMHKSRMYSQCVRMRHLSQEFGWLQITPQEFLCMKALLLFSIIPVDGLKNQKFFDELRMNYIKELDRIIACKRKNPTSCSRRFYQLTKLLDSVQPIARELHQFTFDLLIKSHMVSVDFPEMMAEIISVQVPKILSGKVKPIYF

[3] = target: T2, GAL4 DNA binding domain fusion of …; experiment: two-hybrid; mammalian two-hybrid in HEK293 cells, GAL4(5)E1bTATA-luciferase reporter, GAL4DBD-AR642-917 with pVP16-AR1-538, SKIP-pCGN co-expressed, 1 nM DHT; activity relative to empty vectors without DHT; details: partners not purified
[4] = target: T2, GAL4 DNA binding domain fusion of …; experiment: two-hybrid; mammalian two-hybrid in HEK293 cells, GAL4(5)E1bTATA-luciferase reporter, GAL4DBD-AR642-917 with pVP16-AR1-538, empty pCGN (no SKIP), 1 nM DHT; activity relative to empty vectors without DHT; details: partners not purified

mammalian one-hybrid luciferase reporter in HEK293 cells: AR-AF-1 (GAL4DBD-AR1-555) ligand-independent transcriptional activity with overexpressed SKIP against without SKIP [1]: ~5 fold
GAL4 luciferase reporter in HEK293 cells: ligand-dependent (1 nM DHT) activation of the AR-LBD 642-917 construct with overexpressed SKIP (Figure 2 column 7) [2]: 9 fold
B1: HA-tagged Ski-interacting protein (SKIP-pCGN) (natural protein, human, UniProt Q13573 1-536, looked up)
chain: MALTSFLPAPTQLSQDQLEAEEKARSQRSRQTSLVSSRREPPPYGYRKGWIPRLLEDFGDGGAFPEIHVAQYPLDMGRKKKMSNALAIQVDSEGKIKYDAIARQGQSKDKVIYSKYTDLVPKEVMNADDPDLQRPDEEAIKEITEKTRVALEKSVSQKVAAAMPVRAADKLAPAQYIRYTPSQQGVAFNSGAKQRVIRMVEMQKDPMEPPRFKINKKIPRGPPSPPAPVMHSPSRKMTVKEQQEWKIPPCISNWKNAKGYTIPLDKRLAADGRGLQTVHINENFAKLAEALYIADRKAREAVEMRAQVERKMAQKEKEKHEEKLREMAQKARERRAGIKTHVEKEDGEARERDEIRHDRRKERQHDRNLSRAAPDKRSKLQRNENRDISEVIALGVPNPRTSNEVQYDQRLFNQSKGMDSGFAGGEDEIYNVYDQAWRGGKDMAQSIYRPSKNLDKDMYGDDLEARIKTNRFVPDKEFSGSDRRQRGREGPVQFEEDPFGLDKFLEEAKQHGGSKRPSDSSRPKEHEHEGKKRRKE

relative luciferase activity, fold over control (SKIP co-expressed) [3]: ~300 fold
relative luciferase activity, fold over control [4]: 12 fold
B2: VP16 activation domain fusion of AR residues 1-538 (pVP16-AR1-538) (domain or fragment, human, UniProt P10275 1-538, looked up)
chain: MEVQLGLGRVYPRPPSKTYRGAFQNLFQSVREVIQNPGPRHPEAASAAPPGASLLLLQQQQQQQQQQQQQQQQQQQQQQQETSPRQQQQQQGEDGSPQAHRRGPTGYLVLDEEQQPSQPQSALECHPERGCVPEPGAAVAASKGLPQQLPAPPDEDDSAAPSTLSLLGPTFPGLSSCSADLKDILSEASTMQLLQQQQQEAVSEGSSSGRAREASGAPTSSKDNYLGGTSTISDNAKELCKAVSVSMGLGVEALEHLSPGEQLRGDCMYAPLLGVPPAVRPTPCAPLAECKGSLLDDSAGKSTEDTAEYSPFKGGYTKGLEGESLGCSGSAAAGSSGTLELPSTLSLYKSGALDEAAAYQSRDYYNFPLALAGPPPPPPPPHPHARIKLENPLDYGSAWAAAAAQCRYGDLASLHGAGAAGPGSGSPSAAASSSWHTLFTAEEGQLYGPCGGGGGGGGGGGGGGGGGGGGGGGEAGAVAPYGYTRPPQGLAGQESDFTAPDVWYPGGMVSRVPYPSPTCVKSEMGPWMDSYSGPYGDM
notes: androgen receptor, human, N-terminal residues 1-538; also called AR N-terminus; source: HEK293, transfected, mammalian two-hybrid fusion
